The source of these data is the Human Domainome abundance scans (Beltran et al. 2025).

± gives the uncertainty stated by the source.

The data set can be described thus: abundance fitness (aPCA) (normalised: wild type 0, dead -1); higher = more abundant; growth selection in yeast, the domain comes from the species named. Particulars: Homo sapiens.
The substance “BAG family molecular chaperone regulator 3 A13C, O95817” registered an abundance fitness of -0.603 ± 0.46.
On to “BAG family molecular chaperone regulator 3 A13D, O95817”, for which the abundance fitness worked out at 0.279 ± 0.07.
As to “BAG family molecular chaperone regulator 3 A13E, O95817”, the abundance fitness is -0.47 ± 0.28.
The figure for “BAG family molecular chaperone regulator 3 A13G, O95817” is -0.412 ± 0.094; for “BAG family molecular chaperone regulator 3 A13K, O95817” it is 0.174 ± 0.17; for “BAG family molecular chaperone regulator 3 A13L, O95817” it is 0.127 ± 0.13.
On to “BAG family molecular chaperone regulator 3 A13M, O95817”, for which the abundance fitness is -0.172 ± 0.31.
For the substance “BAG family molecular chaperone regulator 3 A13Q, O95817”, the abundance fitness is -0.167 ± 0.086.
The substance “BAG family molecular chaperone regulator 3 A13R, O95817” displayed an abundance fitness of -0.316 ± 0.13.
“BAG family molecular chaperone regulator 3 A13S, O95817” had an abundance fitness of -0.321 ± 0.2.
With “BAG family molecular chaperone regulator 3 A13T, O95817”, the abundance fitness is 0.169 ± 0.2.
In the case of “BAG family molecular chaperone regulator 3 A13V, O95817” it was 0.328 ± 0.087; in that of “BAG family molecular chaperone regulator 3 A13W, O95817”, -0.774 ± 0.32; in that of “BAG family molecular chaperone regulator 3 A13Y, O95817”, -0.047 ± 0.46.
“BAG family molecular chaperone regulator 3 D18C, O95817” gave an abundance fitness of -0.009 ± 0.15.
In turn, “BAG family molecular chaperone regulator 3 D18E, O95817” showed an abundance fitness of -0.058 ± 0.074.
Consider “BAG family molecular chaperone regulator 3 D18F, O95817”, for which the abundance fitness was -0.343 ± 0.23.
For the substance “BAG family molecular chaperone regulator 3 D18H, O95817”, the abundance fitness is -0.394 ± 0.17.
The figure for “BAG family molecular chaperone regulator 3 D18I, O95817” is -0.205 ± 0.27; for “BAG family molecular chaperone regulator 3 D18K, O95817” it is 0.22 ± 0.18; for “BAG family molecular chaperone regulator 3 D18L, O95817” it is -0.313 ± 0.12.
The figure for “BAG family molecular chaperone regulator 3 D18M, O95817” is -0.406 ± 0.26.
“BAG family molecular chaperone regulator 3 D18N, O95817” had an abundance fitness of 0.148 ± 0.068.
Consider “BAG family molecular chaperone regulator 3 D18P, O95817”, for which the abundance fitness turned out to be 0.065 ± 0.092.
Take “BAG family molecular chaperone regulator 3 D18Q, O95817”: the abundance fitness turned out to be 0.012 ± 0.19.
In the case of “BAG family molecular chaperone regulator 3 D18R, O95817” it was -0.116 ± 0.09; in that of “BAG family molecular chaperone regulator 3 D18S, O95817”, -0.047 ± 0.13.
For the substance “BAG family molecular chaperone regulator 3 D18T, O95817”, the abundance fitness is 0.03 ± 0.11.
For the substance “BAG family molecular chaperone regulator 3 D18W, O95817”, the abundance fitness was -0.317 ± 0.16.
As for “BAG family molecular chaperone regulator 3 D18Y, O95817”, the abundance fitness is -0.641 ± 0.35.
In the case of “BAG family molecular chaperone regulator 3 D20A, O95817” it was -0.557 ± 0.15.
The substance “BAG family molecular chaperone regulator 3 D20C, O95817” registered an abundance fitness of -0.2 ± 0.11.
